From the supplement of paper PMC12042874
± gives the uncertainty stated by the source.

Experiment: amyloid nucleation score (Sup35N fusion, yeast selection) (log enrichment); library NNK3; higher = more nucleation; inactive = no reads after selection
Summary of the method: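 Sup35N fusions to peptides of 20 random codons were expressed in psi-negative yeast, induced 24 hours with 100 μM copper sulfate, and grown 7 days at 30°C on medium lacking adenine and uracil. Input and output plasmid inserts were sequenced by Illumina. The nucleation score is the DiMSum log enrichment of output over input reads, centred on the mode score of non-aggregating sequences. Sequences with under 100 input reads were excluded.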
For RVMWYGGCCWSVIYCHRLGV, the amyloid nucleation score was “inactive”.
With TGVWLRACSYEGEFGEDRKL the amyloid nucleation score was “inactive”.
FRFGSVELLEAGTIQ showed an amyloid nucleation score of 0.043 ± 0.63.
PVEWP gave an amyloid nucleation score of -0.114 ± 0.78.
For NYGAN, the amyloid nucleation score was “inactive”.
With KEDCGGQVNKTSGASVSSLC the amyloid nucleation score was “inactive”.
For AGWIDAYRFYNELLLGLRDH, the amyloid nucleation score was “inactive”.
For NMVHCVLCIAHEHLKVFVMC, the amyloid nucleation score was “inactive”.
For IFKNTVTLRN, the amyloid nucleation score was “inactive”.
In the case of FTLNVIF, the amyloid nucleation score is reported as 1.9 ± 0.069.
With MIMTMTAGFFLELLW the amyloid nucleation score was “inactive”.
With RFGGVLVVFGEWNDVVREAV the amyloid nucleation score was “inactive”.
With YSHNLWLA the amyloid nucleation score was “inactive”.
With IIRMMFISFN the amyloid nucleation score was 1.84 ± 0.076.
With INLGKTSIRSIDRNNVCMLG the amyloid nucleation score was “inactive”.
For GDRLFLKASG, the amyloid nucleation score was “inactive”.
For LRMFSRVGRNRCYNITSFTC, the amyloid nucleation score was “inactive”.
With SRGLFTNGVASFRRVCGLPW the amyloid nucleation score was “inactive”.
For RLQVRLSLLRWFRNYGLTIA, the amyloid nucleation score was “inactive”.
For SVLWLVCMDCHPQKSVSCD, the amyloid nucleation score was 0.863 ± 0.25.
In the case of SRLNFVCRGGSSAVFRRKAH, the amyloid nucleation score is reported as “inactive”.
In the case of GSHNAMLSAISADAGAWQRE, the amyloid nucleation score is reported as “inactive”.
In the case of GFLVNSISFSKSCYEHTIVW, the amyloid nucleation score is reported as “inactive”.
With VVVIHE the amyloid nucleation score was “inactive”.
In the case of AGCAIALLYGWESLRAVFL, the amyloid nucleation score is reported as “inactive”.
In the case of VDLGRWFSSGFVWLGYKDIF, the amyloid nucleation score is reported as “inactive”.
With FVMLVSEYGKELYIIGRPGA the amyloid nucleation score was “inactive”.
For CRVFDYFSLRVYVTVRYSLF, the amyloid nucleation score was “inactive”.
GNASMLWDNMSVVFLRGTLY gave an amyloid nucleation score of 1.53 ± 0.074.
In the case of TGNDGYCVCSVCYLRICVAN, the amyloid nucleation score is reported as “inactive”.
For KCSRDRWQIVKMFMRMTVAI, the amyloid nucleation score was “inactive”.
With GSRKYRCVDIISFGEWAVLD the amyloid nucleation score was “inactive”.
In the case of YTSEFVIAAWSLLFDDRYMS, the amyloid nucleation score is reported as “inactive”.
In the case of DDRSP, the amyloid nucleation score is reported as “inactive”.
With MFGVVTGLTLGSSTFHA the amyloid nucleation score was “inactive”.
With FGPAMCYSLIVQLTSVYRGG the amyloid nucleation score was 1.99 ± 0.087.
Substance YVILPLEAPFS has an amyloid nucleation score of 1.49 ± 0.095.
In the case of IVEHIFDRGVSLEVMMMCYR, the amyloid nucleation score is reported as “inactive”.
For YDGRIGRYSSYIKKCF, the amyloid nucleation score was “inactive”.
For RFYLDLEQQHLEIVGESR, the amyloid nucleation score was “inactive”.
With NPVGT the amyloid nucleation score was “inactive”.
For CGIYTFLRLRD, the amyloid nucleation score was “inactive”.
In the case of VRSRLGSGRDEKPRALSSCM, the amyloid nucleation score is reported as “inactive”.
For SIVHGMA, the amyloid nucleation score was “inactive”.
For FFLMKDSLLSSVERSIGVIG, the amyloid nucleation score was “inactive”.
In the case of VWLCSLLQITFIYAEVTVSL, the amyloid nucleation score is reported as “inactive”.
With FRDIRFAQSMMLSRKIIALL the amyloid nucleation score was “inactive”.
For QVDFQLCH, the amyloid nucleation score was “inactive”.
With TYQSVDTVLSSVT the amyloid nucleation score was “inactive”.
In the case of GTASRG, the amyloid nucleation score is reported as “inactive”.
For MGMVFHME, the amyloid nucleation score was “inactive”.
For LNMGVTRLDLISLGWGSVSL, the amyloid nucleation score was -0.41 ± 0.75.
CNGFTVGWPWGRRLRDPPGH gave an amyloid nucleation score of -0.598 ± 2.4.
In the case of NFSMCINRNKVPCVHLLDTL, the amyloid nucleation score is reported as “inactive”.
In the case of LYLPGKIY, the amyloid nucleation score is reported as “inactive”.
With TFEQVCVLL the amyloid nucleation score was “inactive”.
GICHAACCCANVMYCSWHVR showed an amyloid nucleation score of 1 ± 0.16.
In the case of IPYKHIHRMPFFYHWQQRFG, the amyloid nucleation score is reported as “inactive”.
In the case of SLMSFRYLRTFKWRSMSILS, the amyloid nucleation score is reported as “inactive”.
In the case of NSLNKGKFHWVNIGTSSLQG, the amyloid nucleation score is reported as “inactive”.
In the case of RYLNVVPLLPCYMIWFPRVS, the amyloid nucleation score is reported as “inactive”.
For IIVTL, the amyloid nucleation score was “inactive”.
In the case of YEIYQFSYPRFWKYQCNCSS, the amyloid nucleation score is reported as “inactive”.
With KVFWHDVILTCG the amyloid nucleation score was “inactive”.
In the case of QVGVWRNNGYEYYRGRNLRG, the amyloid nucleation score is reported as “inactive”.
In the case of ADFKKVSSLLRSTGLVGGFR, the amyloid nucleation score is reported as “inactive”.
In the case of ISINMRAGMDG, the amyloid nucleation score is reported as “inactive”.
In the case of RRYGYNLVTL, the amyloid nucleation score is reported as “inactive”.
In the case of MPTTHASLSSSFLG, the amyloid nucleation score is reported as “inactive”.
In the case of WLLPQKGLMG, the amyloid nucleation score is reported as “inactive”.
With LQDKQCHVWDYASGIAYVVE the amyloid nucleation score was “inactive”.
With LQYWSFKSSSYGGLDIYCEA the amyloid nucleation score was “inactive”.
With VSNYDLESS the amyloid nucleation score was “inactive”.
With NGLRRSVLGLRL the amyloid nucleation score was “inactive”.
With TYFDFVLYV the amyloid nucleation score was “inactive”.
In the case of ICTGDSNNSGYVCQLVTKEE, the amyloid nucleation score is reported as “inactive”.
Substance SCFCC has an amyloid nucleation score of 3.09 ± 0.061.
With DLFWLGFNWHLGCRFYVGAN the amyloid nucleation score was “inactive”.
For ILFLNHDMWQCDNDSLKAIH, the amyloid nucleation score was “inactive”.
With LWGAYLLNCGNMRYCMYISG the amyloid nucleation score was 0.803 ± 0.2.
Substance CVSEKQWLSVVVELVFWGCG has an amyloid nucleation score of -0.821 ± 1.3.
In the case of MRTMISYMVRVVRTHTCFLD, the amyloid nucleation score is reported as “inactive”.
In the case of WRRGFVNSRGYNLRFWGHYF, the amyloid nucleation score is reported as “inactive”.
In the case of SLCTSEYFHSTYRNITGLVL, the amyloid nucleation score is reported as “inactive”.
With INMNDSINGS the amyloid nucleation score was 0.231 ± 0.62.
In the case of FELDIAYTEVLAVDCIPVVL, the amyloid nucleation score is reported as “inactive”.
In the case of RYFPTV, the amyloid nucleation score is reported as “inactive”.
Substance NYTSCNFNVYNSMFFRRYTM has an amyloid nucleation score of 3.2 ± 0.053.
For ARMLRYRHIAS, the amyloid nucleation score was “inactive”.
Substance GRKDLKYIQSGDMQFQSSKW has an amyloid nucleation score of 0.138 ± 1.
With DLNLVMSSGSRDRLNSLLRR the amyloid nucleation score was “inactive”.
With KAGVRKRKAER the amyloid nucleation score was “inactive”.
In the case of VDNHPDFFLNLESVLINVDH, the amyloid nucleation score is reported as “inactive”.
With EIWSDKCSTRSMLHPAYIMY the amyloid nucleation score was “inactive”.
For SLLDDRSPGLWILKTKVTAF, the amyloid nucleation score was “inactive”.
With SAVLPLALVGHDTPNRAQLN the amyloid nucleation score was “inactive”.
For YWVSSYCIPMCGYQVWCVWG, the amyloid nucleation score was “inactive”.
With SGRRCKAICA the amyloid nucleation score was “inactive”.
With YCVLVIFVGFCFMEFENVTQ the amyloid nucleation score was “inactive”.
For ILKLQEQTSNGLAVSNESSC, the amyloid nucleation score was “inactive”.
For KYICET, the amyloid nucleation score was “inactive”.
For QYVWCGPFERYLASSVYGFS, the amyloid nucleation score was “inactive”.
For HSRRYILNVP, the amyloid nucleation score was 0.935 ± 0.085.
For YYSFKIDRLRFVRM, the amyloid nucleation score was “inactive”.
With TRNWLDSRKLD the amyloid nucleation score was “inactive”.
With DALIRY the amyloid nucleation score was “inactive”.
For AEASNGACLRLCWLVLVWMD, the amyloid nucleation score was -0.206 ± 1.5.
For FMDYTARVVHLTAQRFMGLW, the amyloid nucleation score was 0.189 ± 0.43.
For RPRHDHWNDVNDATSYRYVM, the amyloid nucleation score was “inactive”.
For MYVYSYQVYNLTCARLAKK, the amyloid nucleation score was “inactive”.
VVSTNVYGGLTMASYCGALP gave an amyloid nucleation score of 1.24 ± 0.16.
With ILVYSVLIV the amyloid nucleation score was “inactive”.
In the case of FHLLPKMCLLLSTLIRSGIT, the amyloid nucleation score is reported as “inactive”.
With RKKRY the amyloid nucleation score was “inactive”.
In the case of SICTLFACHAFAGRYTTQGG, the amyloid nucleation score is reported as 1.04 ± 0.2.
In the case of EGSDIA, the amyloid nucleation score is reported as “inactive”.
In the case of RHKWLFMWGCFHFNKCASH, the amyloid nucleation score is reported as “inactive”.
In the case of WIWVVVHFYDLECQLDS, the amyloid nucleation score is reported as “inactive”.
For LSHPTPQSCRHFVFNLKLSA, the amyloid nucleation score was “inactive”.
For APTRSV, the amyloid nucleation score was “inactive”.
For HKDTSDFISHVRVSPWPNKG, the amyloid nucleation score was “inactive”.
With FIDFGIWC the amyloid nucleation score was “inactive”.
VLLPPGVE showed an amyloid nucleation score of -0.23 ± 0.98.
For SCYNYCRCVCPNVEASHTSL, the amyloid nucleation score was -0.664 ± 1.1.
For PFYFCGHSQYSWTAW, the amyloid nucleation score was “inactive”.
With FSMLWILSDYLSYSCNLVFY the amyloid nucleation score was “inactive”.
For CGLQLQCMVEVLVVCPEQLL, the amyloid nucleation score was 0.737 ± 0.16.
With KLAVFYFVVLVFRGERISSC the amyloid nucleation score was “inactive”.
Work on SVHWSINWTGLERVSRTQRL yielded an amyloid nucleation score of 0.523 ± 0.24.
In the case of ILKYCQTSLRGERPILLLDF, the amyloid nucleation score is reported as “inactive”.
With IDYSNVYSISRPSMFCWRNN the amyloid nucleation score was “inactive”.
For CRENKEYIQGSDTLNFHYPM, the amyloid nucleation score was “inactive”.
For ITTVRAYEALTWNMFWVQCV, the amyloid nucleation score was “inactive”.
In the case of WWAVTKFTAFYMRVIYKIGR, the amyloid nucleation score is reported as “inactive”.
With GEFYCVVLRQYVWAQDDAG the amyloid nucleation score was “inactive”.
With TYIPFIIYLIGCVLVYVYVL the amyloid nucleation score was “inactive”.
For VRTFEAVLCVPIRLDWVRDR, the amyloid nucleation score was “inactive”.
For CVGGSVFVACMLRSRVWGWC, the amyloid nucleation score was “inactive”.
With IGITHFRTCDGHNVRGRNRW the amyloid nucleation score was “inactive”.
For ICDLSREYSNHGFVLMDEIR, the amyloid nucleation score was “inactive”.
In the case of MMDSWYVVVRYLSTLYNCDI, the amyloid nucleation score is reported as “inactive”.
For RYFKIPF, the amyloid nucleation score was “inactive”.
For RNWERIASGHVFCFLLCIID, the amyloid nucleation score was “inactive”.
In the case of YGYEHALQFIFYLFNHLSWS, the amyloid nucleation score is reported as “inactive”.
For RVVPL, the amyloid nucleation score was “inactive”.
With SQCRVYN the amyloid nucleation score was “inactive”.
In the case of WYTNPRDIRYFLVVYKKQN, the amyloid nucleation score is reported as “inactive”.
For EVLGSLFYFGYTTGLFIPF, the amyloid nucleation score was “inactive”.
Work on VDVERIQFRSICLCLSTFCV yielded an amyloid nucleation score of 1.53 ± 0.081.
With AKWVLDFVKDRLPFRFCMLV the amyloid nucleation score was “inactive”.
With YNYKSLMHLIGYDNRIAESR the amyloid nucleation score was “inactive”.
In the case of SFKTF, the amyloid nucleation score is reported as “inactive”.
For AYVFVYESYAWGNLRQ, the amyloid nucleation score was “inactive”.
With RFVGVATTSFLTVTFGLVCE the amyloid nucleation score was “inactive”.
With KMRFLIALNVTTWGPKLLCG the amyloid nucleation score was “inactive”.
With ILDDSSWNSLTANVVVWTYF the amyloid nucleation score was -1.05 ± 1.3.
With RAVRARFSKTTVFDWYAISG the amyloid nucleation score was “inactive”.
With NRFVNLSNRMVYDFRYRMAV the amyloid nucleation score was “inactive”.
For FRSVTTVVNVEKVRVY, the amyloid nucleation score was “inactive”.
